PMC3248800

Target: αβ T cell receptor A6 (human)
Experiment: SPR

“Tel1p-HLA-A2 (A150P) complex (from UniProt P61769 21-119) (peptide-MHC)” showed a Kd of 5 µM.

Work on “Tel1p-HLA-A2 complex (S. cerevisiae Tel1p peptide … presented by wild-type HLA-A*0201) (from UniProt P61769 21-119) (peptide-MHC)” yielded a Kd of 41 µM and a dH of -3 kcal/mol.
